{"source": "patent US20200123237A1", "binders": {"B1": {"name": "IgG1-S4497 (antibody, not shown: a dimerising Fc or GST)", "heavy": "EVQLVESGGGLVQPGGSLRLSCSASGFSFNSFWMHWVRQVPGKGLVWISFTNNEGTTTAYADSVRGRFIISRDNAKNTLYLEMNNLRGEDTAVYYCARGDGGLDDWGQGTLVTVSS", "light": "DIQLTQSPDSLAVSLGERATINCKSSQSIFRTSRNKNLLNWYQQRPGQPPRLLIHWASTRKSGVPDRFSGSGFGTDFTLTITSLQAEDVAIYYCQQYFSPPYTFGQGTKLEIK"}}, "biological_target": "IgG1-S4497 (human)", "assay": "cell-based or functional assay", "data": [{"binder": "B1", "values": [{"measurement": "EC50 of C3b deposition on Wood 46, purified classical pathway system", "result": 0.668, "unit": "µg/mL"}, {"measurement": "EC50 of C4b deposition on Wood 46, purified classical pathway system", "result": 0.886, "unit": "µg/mL"}, {"measurement": "EC50 of neutrophil-mediated phagocytic uptake of Wood 46, NHS devoid of IgG and IgM", "result": 0.144, "unit": "µg/mL"}, {"measurement": "EC50 of neutrophil-mediated phagocytic uptake of Wood 46, intact NHS", "result": 0.096, "unit": "µg/mL"}]}]}
